T1: HPV E7 peptide on HLA-A*11:01 (human)
T1 peptide: IVCPICSQK

B1: TCR074 (TCR, V domains shown)
Valpha: AQKITQTQPGMFVQEKEAVTLDCTYDTSDPSYGLFWYKQPSSGEMIFLIYQGSYDQQNATEGRYSLNFQKARKSANLVISASQLGDSAMYFCAMRIDAGGTSYGKLTFGQGTILTVHP
Vbeta: DAMVIQNPRYQVTQFGKPVTLSCSQTLNHNVMYWYQQKSSQAPKLLFHYYDKDFNNEADTPDNFQSRRPNTSFCFLDIRSPGLGDAAMYLCATSRDRVNTGELFFGEGSRLTVL
B2: TCR095 (TCR, V domains shown)
Valpha: GIQVEQSPPDLILQEGANSTLRCNFSDSVNNLQWFHQNPWGQLINLFYIPSGTKQNGRLSATTVATERYSLLYISSSQTTDSGVYFCAVEGDNAGGTSYGKLTFGQGTILTVHP
Vbeta: EAQVTQNPRYLITVTGKKLTVTCSQNMNHEYMSWYRQDPGLGLRQIYYSMNVEVTDKGDVPEGYKVSRKEKRNFPLILESPSPNQTSLYFCASSWSTSYGYTFGSGTRLTIV
B3: TCR123 (TCR, V domains shown)
Valpha: SQKIEQNSEALNIQEGKTATLTCNYTNYSPAYLQWYRQDPGRGPVFLLLIRENEKEKRKERLKVTFDTTLKQSLFHITASQPADSATYLCALAGYQKVTFGTGTKLQVIP
Vbeta: SQTIHQWPATLVQPVGSPLSLECTVEGTSNPNLYWYRQAAGRGLQLLFYSVGIGQISSEVPQNLSASRPQDRQFILSSKKLLLSDSGFYLCAWSLRTSGSEQFFGPGTRLTVL

Target: T1, HPV E7 peptide on HLA-A*11:01
Test: multimer staining

Binding result, recognises:
B1, B2, B3
